Two substances from publication doi:10.1101/2022.10.07.511266 can be followed below.

The assay concerns the target integrin αIIbβ3 (human) (UniProt P05106). In words: epifluorescence microscopy of co-clustering on giant unilamellar vesicles.

As a reminder, the stoichiometry N is the number of molecules, sites or subunits per partner or assembly.

Regarding eGFP-talin F2-F3 (domain or fragment), the stoichiometry N (talin:integrin) came to 2. The substance further returned a stoichiometry N (scale: talin:integrin) of 3.
“mCherry-kindlin-2 (from UniProt Q96AC1 1-680) (natural protein)” returned a stoichiometry N (kindlin:integrin) of 3. The substance also had a stoichiometry N (scale: kindlin:integrin) of 4.
